Tests used:
Assay in all cases: cell_activity
SBS30724 ZFN (synthetic) = conditions: pair with 30725, AAV in mouse liver, Cel-I
SBS36820 ZFN (synthetic) = conditions: pair with 35396, RF/6A
SBS36819 ZFN (synthetic) = conditions: pair with 35396, RF/6A
SBS36806 ZFN (synthetic) = conditions: pair with 35396, RF/6A
SBS36813 ZFN (synthetic) = conditions: pair with 35396, RF/6A
SBS36808 ZFN (synthetic) = conditions: pair with 35396, RF/6A
SBS30873 ZFN (synthetic) = conditions: pair with 30872, AAV8 in mouse liver, Cel-I; up to 17% over both pairs
SBS34077 ZFN (synthetic) = conditions: pair with 33115, D17 cells
SBS30725 ZFN (synthetic) = conditions: pair with 30724, AAV in mouse liver, Cel-I
SBS30872 ZFN (synthetic) = conditions: pair with 30873, AAV8 in mouse liver, Cel-I; up to 17% over both pairs
SBS35393 ZFN (synthetic) = conditions: pair with 35361
SBS35370 ZFN (synthetic) = conditions: pair with 35396
SBS33115 ZFN (synthetic) = conditions: pair with 34077, D17 cells

CTGAAGGTGGCAATGGTTCCTCTCTGCT (double strand) [30724 site]
activity (SBS30724 ZFN (synthetic)): < 21 % indels

TTAGGGACAGTTATGAATTCAATCTTCA (double strand) [rhesus partner site]
activity (SBS36820 ZFN (synthetic)): 23 % indels | activity (SBS36819 ZFN (synthetic)): 30 % indels | activity (SBS36806 ZFN (synthetic)): 20.5 % indels | activity (SBS36813 ZFN (synthetic)): 21 % indels | activity (SBS36808 ZFN (synthetic)): 26 % indels

TTCCTAAGTTGGCAGTGGCATGCTTAAT (double strand) [30873 site]
activity (SBS30873 ZFN (synthetic)): < 17 % indels

AAGTCATGTGGAGAGAAACACAAAGAGT (double strand) [34077 site]
activity (SBS34077 ZFN (synthetic)): 30 % indels

TTTCCTGTAACGATCGGGAACTGGCATC (double strand) [30725 site]
activity (SBS30725 ZFN (synthetic)): < 21 % indels

CTTGGCTGTGTAGGAGGGGAGTAGCAGT (double strand) [30872 site]
activity (SBS30872 ZFN (synthetic)): < 17 % indels

CCTATCCATTGCACTATGCTTTATTTAA (double strand) [human locus 2 left site (conserved in rhesus)]
activity (% mutated targets) (SBS35393 ZFN (synthetic)): 18

TTTGGGATAGTTATGAATTCAATCTTCA (double strand) [human locus 2 partner site]
activity (% mutated targets) (SBS35370 ZFN (synthetic)): 22

AGTATTCGTTTGCTCCAAAATATTTGCC (double strand) [33115 site]
activity (SBS33115 ZFN (synthetic)): 30 % indels
